Reference: article PMC8541144, “Synthesis, Characterization and In Vitro Evaluation of Hybrid Monomeric Peptides Suited for Multimodal Imaging by PET/OI: Extending the Concept of Charge—Cell Binding Correlation” (Pharmaceuticals, 2021)

Key:
GRPR = target: T1, GRPR (Homo sapiens, UniProt P30550); experiment: Competitive displacement assay on stably GRPR-transfected HEK-293 cells, [125I]I-Tyr4-bombesin as competitor; assay type: binding; conditions: GRPR-expressing HEK cells, mean ± SD
T1 construct: host or cells: HEK-293 (HEK-GRPR), stably transfected
Method: Each compound was evaluated at least three times, each experiment being performed in triplicate. […] The respective cells were harvested and re-suspended in the binding buffer to give a cell concentration of 2 × 10^6/mL. […] Using a Millipore MultiScreen disposable punch and a Millipore MultiScreen punch kit, the filters of the well plate were collected in γ-counter tubes separately and measured by γ-counting.

[1] = LogD determination: partition between 1-octanol and phosphate buffer pH 7.4
Method: In the following, the lipophilicity of the labeled conjugates was investigated to get a first idea of the potential excretion pathway of the agents during an in vivo application. The logD values were determined by partition experiments between n-octanol and aqueous solution at pH 7.4.
The mixtures were intensively shaken for 5 min on a vibrating plate. After subsequent centrifugation at 13,000 rpm for 5 min, 125 µL were taken from each phase and measured in a γ-counter. The logD values were calculated from three or four independent experiments, each performed in triplicate.

[2] = Photophysical properties (absorbance and emission measurements); assay type: physicochemical; conditions: PBS, 1 × 10^−5 mol × L^−1
Method: Following the synthesis of the target compounds, their photophysical properties were determined. Here, a possible negative influence of the conjugation of the different MIUs to the corresponding peptidic structures on the absorbance coefficients, or the absorption or emission wavelengths should be ruled out. In Table 2, the results of these evaluations are reported for the MIU-peptide-bioconjugates 7 a-c, 8 a-c and 9 a-c as well as for the MIUs 7-9. As expected, no significant loss or shift of fluorescence properties of the final compounds compared to their imaging units before conjugation was observed. This is in line with the earlier observation for PESIN homodimer-MIU-conjugates where an influence of dye or MIU bioconjugation on fluorescence quantum yields and other photophysical properties could be ruled out.
For HPLC chromatography, a Dionex UltiMate 3000 system was used together with Chromeleon Software (Version 6.80). For semipreparative analyses, a Chromolith (RP-18e, 100–10 mm, Merck, Germany) column was used. For radioanalytical use, a Dionex UltiMate 3000 system equipped with a Raytest GABI Star radioactivity detector was used together with a Chromolith Performance (RP-18e, 100–4.6 mm, Merck, Germany) column. All operations were performed with a flow rate of 4 mL/min using H2O + 0.1% TFA and MeCN + 0.1% TFA as solvents. HR-ESI (high-resolution Electrospray Ionization) and MALDI (Matrix-Assisted Laser Desorption/Ionization) spectra were obtained with Finnigan MAT95Q and Bruker Daltronics Microflex spectrometers, respectively. γ-counting was performed using a 2480 Wizard gamma counter system from Perkin Elmer (Rodgau, Germany). For absorbance and emission measurements, a Tecan Infinite M200 Microplate reader together with a Nunc Micro-Well 96 solid plate from ThermoFisher (Dreieich, Germany) was used. Confocal fluorescence microscopy was performed on a Leica TCS SP8 confocal microscope with lasers at λ = 405, 488, 552 and 638 nm. Overlays of microscopies were generated directly with the operating software or afterwards using FIJI software (V1.50e).

T1 sequence (P30550 whole entry, species assumed): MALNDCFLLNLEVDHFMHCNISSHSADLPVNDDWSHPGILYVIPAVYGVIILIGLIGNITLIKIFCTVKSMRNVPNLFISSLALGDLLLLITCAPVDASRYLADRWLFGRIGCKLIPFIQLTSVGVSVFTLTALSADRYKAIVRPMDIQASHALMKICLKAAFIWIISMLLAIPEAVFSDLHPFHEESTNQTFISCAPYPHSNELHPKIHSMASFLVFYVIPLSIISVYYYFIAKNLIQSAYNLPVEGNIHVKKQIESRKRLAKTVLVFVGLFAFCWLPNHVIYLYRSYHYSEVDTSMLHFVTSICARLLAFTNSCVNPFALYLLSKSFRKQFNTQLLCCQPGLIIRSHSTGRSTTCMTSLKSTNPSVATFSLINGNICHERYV

| Compound | IC50 (GRPR) [nM] | logD [1] | λmax(abs) [2] | Stokes Shift ([2]; λex = 650 nm) [nm] | λmax(em) ([2]; λex = 650 nm) [nm] |
| --- | --- | --- | --- | --- | --- |
| CSCC[C@H](NC(=O)[C@H](CC(C)C)NC(=O)[C@H](Cc1c[nH]cn1)NC(=O)CNC(=O)[C@@H](NC(=O)[C@H](C)NC(=O)[C@H](Cc1c[nH]c2ccccc12)NC(=O)[C@H](CCC(N)=O)NC(=O)CCOCCOCCOCCOCCNC(=O)CCCN1C(=O)CC(SC[C@H](NC(=O)CNC(=O)CC[C@H](C(=O)O)N2CCN(CC(=O)O)CCN(CC(=O)O)CC2)C(N)=O)C1=O)C(C)C)C(N)=O (stereo partly drawn) [10 a, BBN7-14-NODA-GA] | 19.1 ± 1.44 | -3.78 ± 0.04 | – | – | – |
| CSCC[C@H](NC(=O)[C@H](CC(C)C)NC(=O)[C@H](Cc1c[nH]cn1)NC(=O)CNC(=O)[C@@H](NC(=O)[C@H](C)NC(=O)[C@H](Cc1c[nH]c2ccccc12)NC(=O)[C@H](CCC(N)=O)NC(=O)CCOCCOCCOCCOCCNC(=O)CCCN1C(=O)CC(SC[C@H](NC(=O)[C@H](CCCCNC(=O)c2ccc(C3=C(/C=C/C4=[N+](CCCCS(=O)(=O)[O-])c5ccc6ccccc6c5C4(C)C)CCC/C3=C\C=C3\N(CCCCS(=O)(=O)O)c4ccc5ccccc5c4C3(C)C)cc2)NC(=O)CC[C@H](C(=O)O)N2CCN(CC(=O)O)CCN(CC(=O)O)CC2)C(N)=O)C1=O)C(C)C)C(N)=O (stereo partly drawn) [9 a, BBN7-14-cyanine-NODA-GA] | – | -1.45 ± 0.06 | 724/800 | 9 | 809 |
